Read-outs that look alike come from different tables or passages of the source. No end group written: not given here.

One assay has as its target E2-D. In words: ELISA on coated bacterial fusion protein; two-fold antibody dilutions; goat anti-human AP, PNPP. On the technique in general: An ELISA detects its analyte on a solid surface through an enzyme-linked reagent.
Assay [1] has as its target T1, E2-G bacterially expressed thioredoxin fusion protein (pET32-E2-G, E2 amino acids 412 to 423) (Hepatitis C virus genotype 1a, not fully specified (N-terminus); also: N-terminal thioredoxin fusion partner).
T1 construct: also called WT; not shown: thioredoxin, N-terminal fusion partner of the pET32 vector; C-terminal myc and 6 histidine tags
T1 chain: QLINTNGSWHIN-{myc tag-His6}
In words: Biacore SPR; antibody captured on goat anti-human IgG Fc, E2-G flowed over at varying concentrations; BIAevaluation fit. On the technique in general: In SPR one partner is held on a chip, and binding of the other changes the refractive index at the surface.

For assay [2], the target named is T2, E2-G bacterially expressed fusion protein with the E2 412-423 sequence of genotype 3a (Hepatitis C virus genotype 3a, also: vector linker residues not given here).
T2 construct: not shown: thioredoxin, N-terminal fusion partner of the pET32 vector; C-terminal myc and 6 histidine tags
T2 chain: thioredoxin-QLVNSSGSWHIN-{myc tag-His6 tag}
Nature of the assay: ELISA on coated bacterial fusion protein; two-fold antibody dilutions; goat anti-human AP, PNPP.

In assay [3] the target is T3, E2-G bacterially expressed fusion protein with the E2 412-423 sequence of genotype 4a (Hepatitis C virus genotype 4a, also: vector linker residues not given here).
T3 construct: not shown: thioredoxin, N-terminal fusion partner of the pET32 vector; C-terminal myc and 6 histidine tags
T3 chain: thioredoxin-QLINSNGSWHIN-{myc tag-His6 tag}
The description is as above.

Assay [4] concerns the target T1, E2-G bacterially expressed thioredoxin …. Described as above.
In assay [5] the target is T4, E2-G bacterially expressed fusion protein with the E2 412-423 sequence of genotype 6g (Hepatitis C virus genotype 6g, not fully specified (N-terminus); also: N-terminal thioredoxin fusion partner).
T4 construct: not shown: thioredoxin, N-terminal fusion partner of the pET32 vector; C-terminal myc and 6 histidine tags
T4 chain: QLIKTNGSWHIN-{myc tag-His6}
The description is as above.

The target in assay [6] is T5, E2-G bacterially expressed fusion protein with the E2 412-423 sequence of genotype 6k (Hepatitis C virus genotype 6k, not fully specified (N-terminus); also: N-terminal thioredoxin fusion partner).
T5 construct: not shown: thioredoxin, N-terminal fusion partner of the pET32 vector; C-terminal myc and 6 histidine tags
T5 chain: QLINSNGSWHVN-{myc tag-His6}
The description is as above.

For assay [7], the target named is T6, E2-G bacterially expressed fusion protein with the E2 412-423 sequence of genotype 2b (Hepatitis C virus genotype 2b, also: vector linker residues not given here).
T6 construct: not shown: thioredoxin, N-terminal fusion partner of the pET32 vector; C-terminal myc and 6 histidine tags
T6 chain: thioredoxin-HLVNSNGSWHIN-{myc tag-His6 tag}
The assay is described as above.

In another assay the target is T7, N423A.
T7 construct: alanine scanning mutant of E2-G; also called pET32-E2-G-N423A
The assay is described as above.

The target of the next assay is T8, H421A.
T8 construct: alanine scanning mutant of E2-G; also called pET32-E2-G-H421A
Described as above.

The target in another assay is T9, I422A.
T9 construct: alanine scanning mutant of E2-G; also called pET32-E2-G-I422A (printed in the text as pET32-E2-G-1422A)
Described as above.

Assay [8] addresses T1, E2-G bacterially expressed thioredoxin …. Described as above.
The next assay concerns the target T10, N417A.
T10 construct: alanine scanning mutant of E2-G; also called pET32-E2-G-N417A
Described as above.

The next assay deals with T11, I414A (not fully specified).
T11 construct: alanine scanning mutant of E2-G; also called pET32-E2-G-I414A (printed in the text as pET32-E2-G-1414A); not shown: N-terminal thioredoxin partner and vector-encoded stretch of pET32
T11 chain: QLANTNGSWHINHHHHHH
Described as above.

For the next assay, the target named is T12, N415A (not fully specified).
T12 construct: alanine scanning mutant of E2-G; also called pET32-E2-G-N415A; not shown: N-terminal thioredoxin partner and vector-encoded stretch of pET32
T12 chain: QLIATNGSWHINHHHHHH
Described as above.

For the next assay, the target named is T13, S419A.
T13 construct: alanine scanning mutant of E2-G; also called pET32-E2-G-S419A
The assay is described as above.

Another assay addresses T14, T416A.
T14 construct: alanine scanning mutant of E2-G; also called pET32-E2-G-T416A; not shown: N-terminal thioredoxin partner and vector-encoded stretch of pET32
The description is as above.

The target in a further assay is T15, Q412A (not fully specified).
T15 construct: alanine scanning mutant of E2-G; also called pET32-E2-G-Q412A; not shown: N-terminal thioredoxin partner and vector-encoded stretch of pET32
T15 chain: ALINTNGSWHINHHHHHH
The description is as above.

Sequence of E2-D (P27958 436-463, tags left off): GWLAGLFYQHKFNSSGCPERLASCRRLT

B1: human antibody 83-128 (antibody, V domains shown)
VH: QVQLVESGGGVVQPGRSLRLSCTASGFTFNNYGMHWVRQTPGKGLEWLAVIWFDENNKYYADSVRGRFTISRDNSKNTLFLQMNSLKTEDTAMYYCARDISLVRDAFIYFDFWGLGTLVTVSS
VL: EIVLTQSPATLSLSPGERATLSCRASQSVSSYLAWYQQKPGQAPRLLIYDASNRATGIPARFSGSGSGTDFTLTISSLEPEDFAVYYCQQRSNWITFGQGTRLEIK
Consider B1, for which the binding result in the assay with E2-D was “no binding (tested: 1 µg/ml)”. Also, the Kd (in general, the free concentration of one partner at which half of the binding sites on the other are occupied at equilibrium, for simple one-to-one binding) in assay [1] stood at 3.8 nM. For the same molecule, the koff (in general, the rate constant with which the complex falls apart) in assay [1] amounted to 0.00073 s⁻¹. Further, the kon – broadly, a measure of how fast the partners come together – in assay [1] is 190000 M⁻¹ s⁻¹. The “EC50 (read off the curve)” value in [2], in assay [3], in assay [4], in [5], in [6] and in assay [7] was around 0.006 µg/mL throughout. The EC50 (read off the curve) (as a rule, the concentration needed to bring the measured effect to its halfway point) with N423A is around 0.02 µg/mL; with H421A, around 0.02 µg/mL; in the assay with I422A, around 0.02 µg/mL; in assay [8], around 0.02 µg/mL; with N417A it was around 0.02 µg/mL; with I414A, around 0.03 µg/mL. The “EC50 (read off the curve)” value with N415A, in the assay with S419A, with T416A and in the assay with Q412A was around 0.02 µg/mL each time.
